This data set concerns Escherichia coli TOP10. Kind of data set: shrunken log2 fold change of peptide-encoding DNA abundance (4.5 h post-induction vs induction); higher = less antimicrobial activity (less host growth inhibition). The conditions noted are these: time post-induction: 4.5 h; library: site-saturation at positions 5, 18, 19, 20.

From the supplement of paper PMC9112550, “Optimization of the antimicrobial peptide Bac7 by deep mutational scanning” (BMC Biology, 2022) come the findings set out here.
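Note: peptides expressed intracellularly from a pBAD plasmid library in pooled LB shake-flask culture, induced with 0.3% L-arabinose, DNA abundance read by NGS, three biological replicates, DESeq2 with apeglm shrinkage.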

In the case of RRIRERPPRLPRPRPRPTGCPRP, the “shrunken log2 fold change” value came out at 0.155. Under RRIRDRPPRLPRPRPRPFYWPRP stands -0.0675; under RRIRMRPPRLPRPRPRPLNPPRP, 0.0743; under RRIRVRPPRLPRPRPRPHCGPRP, -0.309. Regarding RRIRARPPRLPRPRPRPDFNPRP, the “shrunken log2 fold change” value worked out at 0.0591. Under RRIRERPPRLPRPRPRPARKPRP stands 0.00472; under RRIRRRPPRLPRPRPRPLGQPRP, 0.00384.

As for RRIRHRPPRLPRPRPRPFPWPRP, the “shrunken log2 fold change” value is -0.0989. Under RRIRGRPPRLPRPRPRPAMMPRP stands 0.51. Take RRIRPRPPRLPRPRPRPQLIPRP: the “shrunken log2 fold change” value was -0.108. Consider RRIRVRPPRLPRPRPRPLDTPRP, for which the “shrunken log2 fold change” value was -0.257. The value for RRIRFRPPRLPRPRPRPFREPRP was -0.0914; that for RRIRERPPRLPRPRPRPLYLPRP was -0.77; that for RRIRSRPPRLPRPRPRPSMFPRP was -0.18. The value for RRIRVRPPRLPRPRPRPPNRPRP was 0.144. The value for RRIRTRPPRLPRPRPRPQKQPRP was 0.166.

Consider RRIRRRPPRLPRPRPRPNLGPRP, for which the “shrunken log2 fold change” value is 0.00298. RRIRTRPPRLPRPRPRPDKWPRP: the “shrunken log2 fold change” value came to 0.0238.

For the sequence RRIRGRPPRLPRPRPRPILRPRP, the “shrunken log2 fold change” value stood at 0.161. For the sequence RRIRFRPPRLPRPRPRPPVGPRP, the “shrunken log2 fold change” value turned out to be 0.641. Under RRIRCRPPRLPRPRPRPVPWPRP stands -0.139. Turning to RRIRARPPRLPRPRPRPVQTPRP, the “shrunken log2 fold change” value came to 0.264. The value for RRIRRRPPRLPRPRPRPPMVPRP was 0.285; that for RRIRFRPPRLPRPRPRPIFMPRP was -0.314.

As for RRIRSRPPRLPRPRPRPTKWPRP, the “shrunken log2 fold change” value is -0.0872. Take RRIRHRPPRLPRPRPRPQGCPRP: the “shrunken log2 fold change” value was -0.0592.

In the case of RRIRLRPPRLPRPRPRPNNHPRP, the “shrunken log2 fold change” value was -0.761.

Take RRIRQRPPRLPRPRPRPMTTPRP: the “shrunken log2 fold change” value was found to be 3.23. The value for RRIRMRPPRLPRPRPRPVRAPRP was 1.08; that for RRIRIRPPRLPRPRPRPWVCPRP was 0.0551.

Take RRIRARPPRLPRPRPRPMCCPRP: the “shrunken log2 fold change” value was 0.335.

For the sequence RRIRLRPPRLPRPRPRPTDPPRP, the “shrunken log2 fold change” value is 0.187.

Regarding RRIRMRPPRLPRPRPRPGVTPRP, the “shrunken log2 fold change” value was 0.285. The value for RRIRDRPPRLPRPRPRPCSNPRP was 0.0176; that for RRIRERPPRLPRPRPRPHTCPRP was -0.0792; that for RRIRERPPRLPRPRPRPNQQPRP was -0.112. The value for RRIRSRPPRLPRPRPRPRCDPRP was 0.144. The value for RRIRERPPRLPRPRPRPSKHPRP was -0.775; that for RRIRARPPRLPRPRPRPHWSPRP was -0.0356; that for RRIRTRPPRLPRPRPRPLTMPRP was -0.27. Consider RRIRSRPPRLPRPRPRPDFNPRP, for which the “shrunken log2 fold change” value was -0.411. The value for RRIRQRPPRLPRPRPRPNYDPRP was -0.257; that for RRIRHRPPRLPRPRPRPYQEPRP was -0.138.

With RRIRKRPPRLPRPRPRPAYYPRP, the “shrunken log2 fold change” value was -0.0726. The value for RRIRQRPPRLPRPRPRPMLSPRP was -0.0514; that for RRIRIRPPRLPRPRPRPQGNPRP was -0.304.

Take RRIRKRPPRLPRPRPRPHQTPRP: the “shrunken log2 fold change” value worked out at 0.202. The value for RRIRDRPPRLPRPRPRPSFCPRP was -0.0945; that for RRIRERPPRLPRPRPRPPHLPRP was -0.0668. For the sequence RRIRSRPPRLPRPRPRPIPWPRP, the “shrunken log2 fold change” value was -0.121. On to RRIRDRPPRLPRPRPRPNYHPRP, for which the “shrunken log2 fold change” value is -0.359. Under RRIRVRPPRLPRPRPRPARAPRP stands 0.566; under RRIRVRPPRLPRPRPRPTYWPRP, 0.0478. Regarding RRIRARPPRLPRPRPRPGVKPRP, the “shrunken log2 fold change” value turned out to be 0.0545. Regarding RRIRSRPPRLPRPRPRPPWFPRP, the “shrunken log2 fold change” value was 0.238. Under RRIRARPPRLPRPRPRPMDCPRP stands 0.181; under RRIRLRPPRLPRPRPRPQIRPRP, -0.0176; under RRIRRRPPRLPRPRPRPNTWPRP, 0.0852. Consider RRIRARPPRLPRPRPRPLGCPRP, for which the “shrunken log2 fold change” value was found to be 0.904. With RRIRMRPPRLPRPRPRPDPTPRP, the “shrunken log2 fold change” value was determined as 0.0984. Regarding RRIRHRPPRLPRPRPRPSALPRP, the “shrunken log2 fold change” value is -0.243.

Take RRIRMRPPRLPRPRPRPWPHPRP: the “shrunken log2 fold change” value came out at 0.512. RRIRWRPPRLPRPRPRPRWSPRP: the “shrunken log2 fold change” value turned out to be 0.372. The value for RRIRRRPPRLPRPRPRPQGWPRP was 0.294; that for RRIRERPPRLPRPRPRPMRNPRP was -0.062. For the sequence RRIRERPPRLPRPRPRPQKMPRP, the “shrunken log2 fold change” value was -0.28. Under RRIRVRPPRLPRPRPRPLEIPRP stands -0.073; under RRIRPRPPRLPRPRPRPCDCPRP, 0.0287; under RRIRPRPPRLPRPRPRPMVPPRP, 0.18.

As for RRIRNRPPRLPRPRPRPQHKPRP, the “shrunken log2 fold change” value was -0.155. Under RRIRSRPPRLPRPRPRPYHKPRP stands -0.404. Take RRIRYRPPRLPRPRPRPTNEPRP: the “shrunken log2 fold change” value is -0.586. Under RRIRVRPPRLPRPRPRPQCGPRP stands -0.0769. Under RRIRVRPPRLPRPRPRPRHFPRP stands 0.13; under RRIRPRPPRLPRPRPRPIYLPRP, -0.379; under RRIRMRPPRLPRPRPRPCSKPRP, -0.00101. The value for RRIRLRPPRLPRPRPRPEHQPRP was -0.0896; that for RRIRWRPPRLPRPRPRPAAIPRP was 0.302. As to RRIRGRPPRLPRPRPRPTSCPRP, the “shrunken log2 fold change” value came out at 0.401. With RRIRMRPPRLPRPRPRPHIFPRP, the “shrunken log2 fold change” value was -0.268. The value for RRIRKRPPRLPRPRPRPYAYPRP was -0.12; that for RRIRGRPPRLPRPRPRPKMMPRP was 0.345; that for RRIRTRPPRLPRPRPRPKESPRP was 0.0841.

RRIRERPPRLPRPRPRPTHIPRP: the “shrunken log2 fold change” value is -0.924. With RRIRIRPPRLPRPRPRPWWWPRP, the “shrunken log2 fold change” value is -0.115.

As to RRIRNRPPRLPRPRPRPLVFPRP, the “shrunken log2 fold change” value is -0.147. For RRIRNRPPRLPRPRPRPTDQPRP, the “shrunken log2 fold change” value stood at 0.362.

Consider RRIRPRPPRLPRPRPRPSFCPRP, for which the “shrunken log2 fold change” value is 0.0813. The value for RRIRGRPPRLPRPRPRPCNCPRP was 0.155. The value for RRIRPRPPRLPRPRPRPNDIPRP was -0.632; that for RRIRMRPPRLPRPRPRPFTAPRP was 0.245.
